{
  "source": "paper PMC2856916",
  "key": {"[1]": {"tested_on": "histone octamer H3 K56Ac (smFRET)", "experiment": "single-molecule FRET", "conditions": "DNA breathing increased by K56Ac; Binding assay buffers not given in material; array DNA kept in 2 M NaCl, 10 mM TEA, 1 mM EDTA; reconstituted arrays dialysed into 1 mM MgCl2, 10 mM TEA pH 7.4"}, "[2]": {"tested_on": "histone octamer unacetylated H3 (smFRET)", "experiment": "single-molecule FRET", "conditions": "reference; Binding assay buffers not given in material; array DNA kept in 2 M NaCl, 10 mM TEA, 1 mM EDTA; reconstituted arrays dialysed into 1 mM MgCl2, 10 mM TEA pH 7.4"}},
  "data": [
    {"substance": "mononucleosome DNA for smFRET", "values": [
      {"measurement": "binding signal (fold DNA breathing vs unacetylated)", "setting": "[1]", "result": 7},
      {"measurement": "binding signal (fold DNA breathing (reference))", "setting": "[2]", "result": 1}
    ]}
  ]
}
